Assay results taken from US20220112526A1, “BIOSYNTHESIS OF VANILLIN FROM ISOEUGENOL” (Conagen Inc., priority 2019, published 2022).

Experiment: Enzyme assay in vitro: formation of vanillin from isoeugenol by purified isoeugenol monooxygenase (HPLC)
Format: biochemical
Settings: 10 mM isoeugenol, pH 7.0, 30° C., 10 min
Method: The two purified isoeugenol monooxygenases were assayed by measuring the formation of vanillin in an enzymatic measuring mixture with isoeugenol as the substrate. The reaction mixture contained 10 mM isoeugenol, 100 mM potassium phosphate buffer (pH 7.0), 10% (v/v) ethanol and an appropriate amount of enzyme, in a total volume of 1 ml. The reaction was started, by adding isoeugenol as ethanol solution, carried out at 30° C. for 10 min with reciprocal shaking (160 strokes min^−1) and stopped with 1 ml of methanol. After centrifugation at 21,500, the supernatant was analyzed by HPLC for the determination of isoeugenol, vanillin, and vanillyl alcohol. CfIEM enzyme treated in boiling water for 5 minutes was used as the negative control.
As expected, no vanillin was produced with the negative control (lower panel).

B1: CfIEM: isoeugenol monooxygenase from the fungus Colletotrichum fioriniae PJ7, 539 amino acids (SEQ ID NO: 2) (protein, listed as Colletotrichum fioriniae)
chain: MAPGRTDDEAAEVATSSKTHAISNYGLTTKWPEAYDLAGSNLPCRLEGEIGDLVVLGEIPKEIDGTFYRVMTDPFVPPHPNNVPLDGDGNISAFRIKDGRVDMKMRYVETERYKLERKANKALFGLYRNPFTHHPCVRAAVDSTANTNVVLWADHFLALKEGGLPYSVDPQTLETIKYDPFGQIKAKTFTAHPKIDPYTNELVVFGYEARGLASLDIVIYALDSNGVKHDEQWIKSPWCAPIHDCAITPNWIILALWPFEASVDRMKKGGHHWAWDYDLPATFIVAPRRSSTKLPPGWQPGESRVYSWKNCMLIHTGGAWESEDGQTLFMETTRVHDNGFPFFPTNEGVYPAPDPKSDYVRWTFDLSQPTNSKVPDPEIILDMPAEFPRLDERFLSKSYNYVWINVYIHEDQNGDGHTIVEGLNGLAMHNSKTKETKCFNAGAESFCQEPIFIPRSDDAPEGDGWVMTMVERRGANRNEIVVLDTKDFEKPIAVIQLPFHVKAQVHGNWVDQRRLKAWQKLARDAVPEPISGQGALEPL
For B1, the activity toward isoeugenol was “high activity” and the “conversion of added isoeugenol to vanillin (HPLC)” value was “Almost all isoeugenol added to the reaction mixture was converted to vanillin”.
